In patent US11358997:

Molecular target: mouse leptin receptor on Ba/F3-mLR cells (mouse) (UniProt P48356)
Test: cell-based or functional assay

Sequence of UniProt P48356 (P48356 22-1162): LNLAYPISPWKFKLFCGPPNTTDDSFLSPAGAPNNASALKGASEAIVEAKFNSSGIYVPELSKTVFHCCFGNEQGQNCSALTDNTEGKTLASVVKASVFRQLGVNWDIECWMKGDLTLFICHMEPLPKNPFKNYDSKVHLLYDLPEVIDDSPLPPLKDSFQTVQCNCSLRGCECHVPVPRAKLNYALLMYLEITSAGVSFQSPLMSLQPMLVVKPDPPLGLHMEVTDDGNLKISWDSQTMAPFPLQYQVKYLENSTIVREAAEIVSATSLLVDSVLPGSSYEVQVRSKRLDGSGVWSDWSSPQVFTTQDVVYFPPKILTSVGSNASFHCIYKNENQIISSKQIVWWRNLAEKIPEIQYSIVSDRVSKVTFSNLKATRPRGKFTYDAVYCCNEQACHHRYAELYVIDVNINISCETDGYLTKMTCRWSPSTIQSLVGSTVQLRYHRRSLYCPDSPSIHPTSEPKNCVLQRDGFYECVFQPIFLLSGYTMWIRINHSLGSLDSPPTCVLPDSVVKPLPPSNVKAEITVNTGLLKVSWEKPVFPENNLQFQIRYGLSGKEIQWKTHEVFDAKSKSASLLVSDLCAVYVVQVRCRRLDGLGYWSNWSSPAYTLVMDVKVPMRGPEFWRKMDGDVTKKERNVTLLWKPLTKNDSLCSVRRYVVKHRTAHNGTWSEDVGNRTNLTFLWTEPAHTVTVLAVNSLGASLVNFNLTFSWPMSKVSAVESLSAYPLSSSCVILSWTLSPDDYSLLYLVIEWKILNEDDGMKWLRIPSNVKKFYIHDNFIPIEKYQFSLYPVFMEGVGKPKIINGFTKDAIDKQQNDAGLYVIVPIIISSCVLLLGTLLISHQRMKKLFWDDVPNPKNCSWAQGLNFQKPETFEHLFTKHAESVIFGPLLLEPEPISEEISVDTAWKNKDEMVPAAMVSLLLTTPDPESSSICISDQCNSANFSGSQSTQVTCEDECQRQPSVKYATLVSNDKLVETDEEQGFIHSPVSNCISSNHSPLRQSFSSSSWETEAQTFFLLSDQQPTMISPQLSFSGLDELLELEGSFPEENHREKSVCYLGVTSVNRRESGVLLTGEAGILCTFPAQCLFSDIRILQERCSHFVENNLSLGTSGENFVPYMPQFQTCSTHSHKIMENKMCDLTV

Row | Substance | induction of proliferation of Ba/F3-mLR cells (XTT assay, 4 days) (times less potent)
1 | scTNF WT-6xGGS-mLeptin L86N-FLAG (from UniProt P01375 77-233; P01375 80-233; P01375 80-233; P41160 22-167) | 10
2 | scTNF WT-6xGGS-mLeptin L86S-FLAG (from UniProt P01375 77-233; P01375 80-233; P01375 80-233; P41160 22-167) | 3
